T1: CD19 (human, UniProt P15391 20-556)
T1 sequence (looked up): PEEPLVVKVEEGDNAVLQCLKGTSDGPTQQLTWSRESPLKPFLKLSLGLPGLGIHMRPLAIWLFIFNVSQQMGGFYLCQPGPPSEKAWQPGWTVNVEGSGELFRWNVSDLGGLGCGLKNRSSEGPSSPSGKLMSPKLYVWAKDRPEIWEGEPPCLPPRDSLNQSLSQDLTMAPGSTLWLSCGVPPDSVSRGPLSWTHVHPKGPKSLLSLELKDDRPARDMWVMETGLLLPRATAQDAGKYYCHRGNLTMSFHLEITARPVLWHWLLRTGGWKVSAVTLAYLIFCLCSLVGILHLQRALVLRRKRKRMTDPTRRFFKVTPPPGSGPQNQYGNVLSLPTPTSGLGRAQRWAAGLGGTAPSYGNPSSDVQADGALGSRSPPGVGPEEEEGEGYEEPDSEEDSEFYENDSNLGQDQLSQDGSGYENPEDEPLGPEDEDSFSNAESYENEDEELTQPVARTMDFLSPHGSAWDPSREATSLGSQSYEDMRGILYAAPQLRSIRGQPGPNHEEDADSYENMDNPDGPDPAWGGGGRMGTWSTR

B1: CD19/CD20 bispecific CAR (Leu16 scFv-(G4S)4-FMC63 scFv-IgG4 hinge-CD28 TM-4-1BB-CD3 zeta) (other)
chain: DIVLTQSPAILSASPGEKVTMTCRASSSVNYMDWYQKKPGSSPKPWIYATSNLASGVPARFSGSGSGTSYSLTISRVEAEDAATYYCQQWSFNPPTFGGGTKLEIKGSTSGGGSGGGSGGGGSSEVQLQQSGAELVKPGASVKMSCKASGYTFTSYNMHWVKQTPGQGLEWIGAIYPGNGDTSYNQKFKGKATLTADKSSSTAYMQLSSLTSEDSADYYCARSNYYGSSYWFFDVWGAGTTVTVSSGGGGSGGGGSGGGGSGGGGSEVKLQESGPGLVAPSQSLSVTCTVSGVSLPDYGVSWIRQPPRKGLEWLGVIWGSETTYYNSALKSRLTIIKDNSKSQVFLKMNSLQTDDTAIYYCAKHYYYGGSYAMDYWGQGTSVTVSSGSTSGSGKPGSGEGSTKGDIQMTQTTSSLSASLGDRVTISCRASQDISKYLNWYQQKPDGTVKLLIYHTSRLHSGVPSRFSGSGSGTDYSLTISNLEQEDIATYFCQQGNTLPYTFGGGTKLEITESKYGPPCPPCPMFWVLVVVGGVLACYSLLVTVAFIIFWVKRGRKKLLYIFKQPFMRPVQTTQEEDGCSCRFPEEEEGGCELRVKFSRSADAPAYQQGQNQLYNELNLGRREEYDVLDKRRGRDPEMGGKPRRKNPQEGLYNELQKDKMAEAYSEIGMKGERRRGKGHDGLYQGLSTATKDTYDALHMQALPPR

Tests used:
[1] = biological target: B1; test: flow cytometry, staining of T cells (donor 1917) transduced with CD19/20 CAR lentiviral vector
Excerpt: Direct Detection of CAR+ cells by Flow Cytometry. Direct measurement was used to detect expression of CD 19/20 CAR. Because quantification of a tEGFR protein may not provide an accurate measurement of surface CAR expression, tEGFR was removed from the Lentiviral vector as described herein, and instead utilized antibodies which bound to the scFv domains of the CD19/20 CAR protein to report surface CAR expression.

[2] = biological target: T1, CD19; test: cell-based or functional assay

| % Positive Cells [1] | IFN-γ and IL-2 production, 1:1 effector:target cell ratio or greater, 24 hours, target cells lacking CD20 [2] | Binder |
| --- | --- | --- |
| 68.1% |  | CD20 Protein-Biotin (Acros) (other, UniProt P11836 1-297, looked up, biotin (site not stated), Bought detection reagent; construct not described) MTTPRNSVNGTFPAEPMKGPIAMQSGPKPLFRRMSSLVGPTQSFFMRESKTLGAVQIMNGLFHIALGGLLMIPAGIYAPICVTVWYPLWGGIMYIISGSLLAATEKNSRKCLVKGKMIMNSLSLFAAISGMILSIMDILNIKISHFLKMESLNFIRAHTPYINIYNCEPANPSEKNSPSTQYCYSIQSLFLGILSVMLIFAFFQELVIAGIVENEWKRTCSRPKSNIVLLSAEEKKEQTIEIKEEVVGLTETSSQPKNEEDIEIIPIQEEEEEETETNFPEPPQDQESSPIENDSSP |
|  | > 1000 | B1 |

Reference: patent US20260152553A1 (LYELL IMMUNOPHARMA, published 2026)
